Data published in publication PMC3232166, “Seleno-detergent MAD phasing of leukotriene C4 synthase in complex with dodecyl-β-D-selenomaltoside” (Acta Crystallographica Section F, 2011).

Biological target: the molecule itself
Assay: crystal structure; LTC4S with SeDDM and GSH, sitting-drop vapour diffusion at 293 K, 0.1 M MES-NaOH pH 6.5, 1.6 M ammonium sulfate, 0.4 M MgCl2; space group F23, Se MAD phasing, refined at 3.2 A

B1: Human leukotriene C4 synthase (enzyme)
chain: MKDEVALLAAVTLLGVLLQAYFSLQVISARRAFRVSPPLTTGPPEFERVYRAQVNCSEYFPLFLATLWVAGIFFHEGAAALCGLVYLFARLRYFQGYARSAQLRLAPLYASARALWLLVALAALGLLAHFLPAALRAALLGRLRTLLPWA
notes: Leukotriene C4 synthase, human; 17 kDa monomer; construct as described previously (Ago et al., 2007; Saino et al., 2011); also called LTC4S
stoichiometry N: 3
